Positions count from the first letter of the chain named. Like-named read-outs stand apart in the source and are kept apart here.
T1: recombinant human Siglec15-his protein (human, UniProt Q6ZMC9 20-263)
T1 construct: In house made; Biotin-labeled in the capture ELISA
T1 sequence: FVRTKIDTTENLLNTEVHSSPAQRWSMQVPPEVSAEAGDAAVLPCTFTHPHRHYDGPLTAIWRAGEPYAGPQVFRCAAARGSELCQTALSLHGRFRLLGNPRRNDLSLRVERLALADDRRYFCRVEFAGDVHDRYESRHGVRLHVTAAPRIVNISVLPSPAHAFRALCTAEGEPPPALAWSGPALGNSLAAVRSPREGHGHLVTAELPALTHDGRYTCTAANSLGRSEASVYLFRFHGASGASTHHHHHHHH

T2: mouse Siglec15-his protein (mouse)
T2 construct: In house made
T2 chain: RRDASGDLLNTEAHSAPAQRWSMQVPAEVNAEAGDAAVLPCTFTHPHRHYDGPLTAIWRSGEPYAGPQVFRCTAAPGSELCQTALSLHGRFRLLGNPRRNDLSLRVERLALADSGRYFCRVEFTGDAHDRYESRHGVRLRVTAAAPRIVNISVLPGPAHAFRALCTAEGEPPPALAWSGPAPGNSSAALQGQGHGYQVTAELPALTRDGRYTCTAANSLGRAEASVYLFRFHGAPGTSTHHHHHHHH

B1: A1E10G7H9 (antibody, V domains shown)
VH: QVQLQESGPGLVKPSGTLSLTCAVSGGSISSSNWWHWVRQPPGKGLEWIGEIYHSGNTNYKPSLKSRVTISVDKSKNQFSLKLSSVTAADTAVYYCARDEGNGWSNAFDIWGQGTMVTVSS
VL: ENVLTQSPGTLSLSPGERVTLSCRASQSVSSSYLAWYQQKPGQAPRFLIYGASGGATGIPDRFSGSGSGTDFTLTISRLEPEDFAVYYCQQYGSSPITFGQGTRLEIK
notes: Fully human antibody from transgenic mouse hybridoma
B2: anti-Siglec15 benchmark (ch5G12) (antibody, human IgG1, kappa, V domains shown)
VH: QVQLQQPGAELVKPGASVKMSCKASGYTFTSYWITWVIQRPGQGLEWIGDIYCGSDTMHYNEKFKNKATLTVDTSSSTAYMQLSSLTSEDSAVYYCARWWDYGSSYDYFDYWGQGTTLTVSS
VL: DIKMTQSPSSMYASLGERVTITCKASQDINSYLSWFQQKPGKSPKTLIYRANRLVDGVPSRFSGSGSGQDYSLTISSLEYEDMGIYYCLQYDEFPYTFGGGTKLEIKR
notes: ch5G12 (US 20190202912A1); also called BM; Siglec15-ch5G9
B3: A2A5C7E8 (antibody, V domains shown)
VH: EVQLVQSGAEVKKPGESLRISCKGSGYSFTTYWISWVRQMPGKGLEWMGLIDPSDSYTNYSPSFQGHVTISTDKSISTAYLQWSSLKASDTAMYYCARGGYYGSEEDYWGQGTLVTVSS
VL: EIVLTQSPGTLSLSPGERATLSCRASQSVSSSRLAWFQQKSGQAPRLLIFDASSRATGIPDRFSGSGSGTDFTLTISRLEPEDFAVYYCQQYGSSPRTFGQGTKVEFK
notes: Fully human antibody from transgenic mouse hybridoma; also called A2A5C7E8-1
B4: A2A5C7E8-2 (antibody, human IgG1, kappa, V domains shown)
VH: B3 VH with D55E
VL: EIVLTQSPGTLSLSPGERATLSCRASQSVSSSRLAWFQQKSGQAPRLLIFDASSRATGIPDRFSGSGSGTDFTLTISRLEPEDFAVYYCQQYGSSPRTFGQGTKVEFKR
notes: Variant of A2A5C7E8 modified in VH CDR2 (X1 = E)
B5: A2A5C7E8-3 (antibody, human IgG1, kappa, V domains shown)
VH: B3 VH with Q65K
VL: B4 VL
notes: Variant of A2A5C7E8 modified in VH CDR2 (X2 = K)
B6: B2D7H7A3C1 (antibody, V domains shown)
VH: QVQLQQSGAELVRPGTSVQMSCKAAGYTFTNYWIGWVKQRPGHGLEWVGDIHPGINYTNNNEKFRGKATLTADTSSNTAYMQLRGLTSDDSAIYYCARVDYDYDGSYIMDYWGQGTSVTVSS
VL: QIVLSQSPALLSASPGEKVTMTCRASSSVSYMYWYQQKPGSSPKPWIYATSNLTSGVPARFSGSGSGTSYSLTISRVEAEDAATYFCQQWNSKPWTFGGGSKLEIR
notes: Mouse monoclonal antibody from hybridoma; also called mouse B2D7H7A3C1
B7: B2G12H3E8 (antibody, V domains shown)
VH: B6 VH with Q5K, A25V, N77S
VL: B6 VL
notes: Mouse monoclonal antibody from hybridoma; also called mouse B2G12H3E8
B8: B2H2H1H7 (antibody, V domains shown)
VH: B6 VH with N77S
VL: B6 VL with V3I, K102R
notes: Mouse monoclonal antibody from hybridoma; also called mouse B2H2H1H7; B2H2H1A7

Key:
[1] = molecular target: T1, recombinant human Siglec15-his protein; assay: capture ELISA, captured antibody, biotin-labeled human Siglec15-his in solution
Experimental: (§1) Briefly, 96-well plates were coated with 100 μl of 2 μg/ml AffiniPure Goat Anti-Human IgG F(ab′)₂ fragment specific (Jackson Immuno Research, Cat #109-005-097) in PBS for 2 hours at 37° C. Plates were washed once with wash buffer (PBS+0.05% v/v Tween-20, PBST) and then blocked with 200 μl blocking buffer (5% w/v non-fatty milk in PBST) overnight at 4° C. Plates were washed 4 times and respectively incubated with 100 μl serially diluted anti-Siglec15 antibodies of the disclosure, the benchmark and hIgG (human immunoglobulin (pH4) for intravenous injection, Hualan Biological Engineering Inc.), 5-fold dilution in 2.5% w/v non-fatty milk in PBST starting at 66.7 nM, for 40 minutes at 37° C., and then washed 4 times again. Plates containing captured antibodies were incubated with 100 μl biotin-labeled human Siglec15-his protein (in house made with SEQ ID NO: 20, 145 ng/ml in 2.5% w/v non-fatty milk in PBST) for 40 minutes at 37° C., washed 4 times, and incubated with streptavidin conjugated HRP (1:10000 dilution in PBST, Jackson Immuno Research, Cat #016-030-084, 100 μl/well) for 40 minutes at 37° C. After a final wash, plates were incubated with 100 μl/well ELISA substrate TMB (Innoreagents, Cat #TMB-S-002). The reaction was stopped in 4 minutes at room temperature with 50 μl/well 1M H₂SO₄, and the absorbance of each well was read on a microplate reader using dual wavelength mode with 450 nm for TMB and 630 nm as the reference wavelength, then the OD (450-630) values were plotted against antibody concentration. Data was analyzed using Graphpad Prism software and EC₅₀ values were reported.

[2] = molecular target: T3, human Siglec15-Fc protein (human); assay: competitive ELISA: biotin-labeled human Siglec15-Fc in solution, competitor coated benchmark
T3 construct: In house made; also called recombinant human Siglec15 protein with human IgG1 Fc at the C-terminus
T3 sequence (chain, as listed by the source limits assumed): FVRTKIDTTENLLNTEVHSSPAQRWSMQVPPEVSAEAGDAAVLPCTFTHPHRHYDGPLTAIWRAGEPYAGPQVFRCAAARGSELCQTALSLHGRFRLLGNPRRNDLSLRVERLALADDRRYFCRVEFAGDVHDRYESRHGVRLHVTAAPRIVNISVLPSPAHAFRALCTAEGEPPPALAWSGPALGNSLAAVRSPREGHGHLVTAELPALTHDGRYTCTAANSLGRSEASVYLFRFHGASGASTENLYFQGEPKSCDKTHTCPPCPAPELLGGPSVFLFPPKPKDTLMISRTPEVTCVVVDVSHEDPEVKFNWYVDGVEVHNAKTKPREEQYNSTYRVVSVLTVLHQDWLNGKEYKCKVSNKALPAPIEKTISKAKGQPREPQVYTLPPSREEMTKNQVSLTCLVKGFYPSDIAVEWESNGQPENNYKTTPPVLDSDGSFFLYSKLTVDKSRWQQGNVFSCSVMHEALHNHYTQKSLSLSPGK
Experimental: The abilities of the anti-Siglec15 antibodies of the disclosure to block benchmark-human Siglec15 binding were measured in a competitive ELISA assay. Briefly, the benchmark was coated on 96-well micro plates at 2 μg/mL in PBS, 100 μl per well, and incubated for 2 hours at 37° C. Then plates were washed once with wash buffer, and blocked with 5% w/v non-fatty milk in PBST overnight at 4° C. The next day, the anti-Siglec15 antibodies of the disclosure or controls were diluted with biotin labeled human Siglec15-Fc protein (prepared in-house with SEQ ID NO: 19, 37 ng/ml in PBST with 2.5% w/v non-fatty milk), starting at 80 nM with a 4-fold serial dilution, and incubated at room temperature for 40 minutes. After plate washing 4 times, the antibody/Siglec15-Fc mixtures were added to benchmark coated plates, 100 μl per well. After incubation at 37° C. for 40 minutes, plates were washed 4 times again using wash buffer. Then the plates were added and incubated with 100 μl/well streptavidin conjugated HRP for 40 minutes at 37° C. Plates were washed again using wash buffer. Finally, TMB was added and the reaction was stopped using 1M H₂SO₄, and the absorbance of each well was read on a microplate reader using dual wavelength mode with 450 nm for TMB and 630 nm as the reference wavelength, then the OD (450-630) values were plotted against antibody concentration. Data was analyzed using Graphpad Prism software and IC₅₀ values were reported.
The mouse anti-Siglec15 antibodies of the disclosure were also tested in ligand blocking ELISA and benchmark blocking ELISA following the protocols described above.

[3] = molecular target: T1, recombinant human Siglec15-his protein; assay: capture ELISA, captured antibody, biotin-labeled human Siglec15-his in solution; remark: listed apart in the source
Experimental: as §1

[4] = molecular target: T2, mouse Siglec15-his protein; assay: SPR Biacore T200, antibody captured by anti-human IgG, antigen as analyte, 1:1 fit
Experimental: Briefly, goat anti-human IgG (GE healthcare, Cat #BR100839, Human Antibody Capture Kit) was covalently linked to a CM5 chip (carboxy methyl dextran coated chip, GE healthcare, Cat #BR-1005-30) via primary amines, using a standard amine coupling kit provided by Biacore (GE healthcare, Pittsburgh, Pa., USA). Un-reacted moieties on the biosensor surface were blocked with ethanolamine. Then, purified anti-Siglec15 antibodies of the disclosure at the concentration of 13.3 nM and an anti-Siglec15 benchmark (ch5G12, also referred to as BM, see U.S. Patent Publication No. 20190202912A1, amino acid sequences of the heavy chain and light chain set forth in SEQ ID NOs: 24 and 25, respectively) at 13.3 nM, were respectively flowed onto the chip at a flow rate of 10 μL/min. Then, serially diluted recombinant human Siglec15-his protein (in house made, amino acid sequence set forth in SEQ ID NO: 20) or cynomolgus monkey Siglec15-his protein (in house made, amino acid sequence set forth in SEQ ID NO: 21), 2-fold serial dilution in HBS-EP⁺ buffer starting at 80 nM, were respectively flown onto the chip at a flow rate of 30 μL/min. The antigen-antibody association kinetics was followed for 2 minutes and the dissociation kinetics was followed for 10 minutes. The association and dissociation curves were fit to a 1:1 Langmuir binding model using BIAcore evaluation software.
For the BIAcore test measuring the binding affinities of the modified A2A5C7E8 variants to mouse Siglec 15, mouse Siglec15-his protein (in house made with SEQ ID NO: 22) was used.

Row | Binder | EC50 [1] [nM] | IC50 [2] [nM] | EC50 [3] [nM] | Kd [4] [nM] | koff [4] [s⁻¹] | kon [4] [M⁻¹ s⁻¹]
1 | B1 | 0.252 |  |  |  |  | 
2 | B2 | 2.93 | 0.447 | 1.79 | 0.17 | 0.000931 | 5.47e+06
3 | B3 | 0.232 |  | 0.0848 | 0.0875 | 0.000187 | 2.14e+06
4 | B4 |  |  | 0.502 | 0.188 | 0.000495 | 2.63e+06
5 | B5 |  |  | 0.0902 | 0.0737 | 0.000165 | 2.24e+06
6 | B6 |  | 0.081 |  |  |  | 
7 | B7 |  | 0.063 |  |  |  | 
8 | B8 |  | 0.0642 |  |  |  | 
